Assay results taken from patent publication US12630630 (SHANGHAI HENLIUS BIOTECH, dated 2026).
Substitutions are numbered along the chain they refer to. One block for each binder: values may come before it.

Molecular target: T1, CD47 on human cells (Raji, Jurkat, red blood cells) (human, UniProt Q08722 19-311)
T1 construct: Endogenous CD47 on Raji, Jurkat and red blood cells; also called IAP; MER6
Experiment: flow cytometry competition: antibody and a fixed concentration of biotin-human SIRPα-Fc co-incubated with CD47-expressing cells (Jurkat in Example 2; the legend also names Raji), streptavidin-PE
Method: Example 2. […] CD47-expressing cells (Jurkat) (1E5 cells/well) were washed and resuspended in FACS buffer (1×PBS with 2% FBS). […] Flow cytometric analyses were performed using the Cytomics FC 500 (Beckman Coulter Inc.).
IgG isotype control (an anti-PD1 antibody) were used as a negative control.

B1: Clone M1 (antibody, human IgG4 S228P, lambda, V domains shown)
VH: QVQLQQWGAGLLKPSETLSLTCAVYGGSFSGYYWSWIRQPPGKGLEWIGEINHSGSTNYNPSLKSRVTISVDTSKNQFSLRLSSVTAADTAMYYCARFTGRPYYGMDVWGQGTTVTVSS
VL: LSYELTQPPSVSATPGQRVTISCSGSESNIGSHKVKWYQQFAGAAPRLLIHGNDQRRSGVPDRFSGSKSGTSASLAISGLQSEDEADYYCAAWDDSLNGRVFGGGTKLTVLG
notes: also called antibody clone M1
IC50 (read off the curve): ~1 µg/mL

B2: Clone M1 #46 (antibody, human IgG4 S228P, lambda, V domains shown)
VH: B1 VH with T99S
VL: B1 VL with N98Y
IC50 (read off the curve): ~0.2 µg/mL

Further lines, results first:

IC50 (read off the curve): ~0.08 µg/mL
B3: Clone M1 #21 (antibody, human IgG4 S228P, lambda, V domains shown)
VH: B1 VH with H53Q
VL: B1 VL with R57F, N98Y

IC50 (read off the curve): ~0.06 µg/mL
B4: Clone M1 #11 (antibody, human IgG4 S228P, lambda, V domains shown)
VH: B1 VH with T99H
VL: B1 VL with S58R, N98Y
